Data set [1] concerns the target T1, RNase T (Escherichia coli (JM109 or K-12), UniProt P30014 1-215).
T1 sequence: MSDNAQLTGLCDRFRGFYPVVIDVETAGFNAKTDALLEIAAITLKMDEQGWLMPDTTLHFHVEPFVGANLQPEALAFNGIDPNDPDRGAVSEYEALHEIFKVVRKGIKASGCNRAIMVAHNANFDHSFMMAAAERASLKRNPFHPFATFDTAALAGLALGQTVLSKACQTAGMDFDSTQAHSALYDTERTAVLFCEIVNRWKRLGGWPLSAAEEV
The data set is described as follows: EMSA; 30 mM EDTA, 10 mM EGTA; EMSA: 20 nM DNA, 0/5/50 uM protein, 100 mM NaCl, 30 mM EDTA, 10 mM EGTA, 50 mM Tris-HCl pH 7.0, 20 min, room temperature. Conditions: protein: recombinant, tags: N-terminal His (pET-28a), chain copies: 2, label: 5'-32P, hairpin. On the technique in general: Mobility shift assays separate free from complexed probe on a gel.

Data set [2] concerns the molecule itself. The data set can be described thus: dynamic light scattering; purified recombinant proteins in solution; conditions not given.
Data set [3] concerns the target T1, RNase T. The data set can be described thus: X-ray crystallography; 2 Mg2+ in active site; one DNA per protomer; 1.9 A; EMSA: 20 nM DNA, 0/5/50 uM protein, 100 mM NaCl, 30 mM EDTA, 10 mM EGTA, 50 mM Tris-HCl pH 7.0, 20 min, room temperature. The conditions noted are these: protein: recombinant; tags: N-terminal His (pET-28a); chain copies: 2; Y structure (5' and 3' unpaired tails).

B1: Stem-loop duplex DNA, 4-nt 3' overhang (structured_DNA)
DNA: GGCCCTCTTTAGGGCCTTAA
Consider B1, for which the binding result in data set [1] (3' overhang 4 nt) was “binds”.

B2: RNase T (enzyme, E. coli, UniProt P30014 1-215, looked up)
chain: T1 sequence
notes: RNase T (rnt gene) of E. coli, full-length gene amplified from genomic DNA of JM109 or K-12 strains, cloned into NdeI/XhoI sites of pET-28a; Wild-type RNase T was used for crystallisation; also called rnt; DnaQ-like exonuclease RNase T; source: E. coli BL21-CodonPlus(DE3)-RIPL, purified (HiTrap TALON, HiTrap Heparin, Superdex 75)
One may read the stoichiometry N as a count of units in the complex or per binding partner. In the case of B2, the “stoichiometry N” value in data set [2] was found to be 2.

B3: Y-structured DNA, 3'-CC (crystal) (structured_DNA)
DNA: TTGGCCCTCTTTAGGGCCCC
Turning to B3, the binding result in data set [3] is given as “binds”.

B4: Stem-loop duplex DNA, 10-nt 3' overhang (structured_DNA)
DNA: GGCCCTCTTTAGGGCCAAGGGTTTAA
In the case of B4, the binding result in data set [1] (3' overhang 10 nt) is on record as “binds”.

B5: Stem-loop duplex DNA, 6-nt 3' overhang (structured_DNA)
DNA: GGCCCTCTTTAGGGCCTTATAA
On to B5, for which the binding result in data set [1] (3' overhang 6 nt) is given as “binds”.

The record behind these values is publication PMC3942315, “Structural Insights Into DNA Repair by RNase T—An Exonuclease Processing 3′ End of Structured DNA in Repair Pathways” (PLoS Biology, 2014).
